In the supplement of paper PMC10065799, “High-throughput profiling of sequence recognition by tyrosine kinases and SH2 domains using bacterial peptide display” (eLife, 2023):

Experiments:
c-Src SH2 = experiment: SH2 binding enrichment of the phosphorylated peptide, bacterial display (enrichment ratio); higher = better substrate or ligand; peptides without Tyr show the background
SHP2-C SH2 = experiment: as above
Grb2 SH2 = Grb2 SH2 (UniProt P62993); experiment: as above
Hck = Hck (UniProt P08631); experiment: phosphorylation enrichment, bacterial display (enrichment ratio); higher = better substrate or ligand; peptides without Tyr show the background
FGFR3 = FGFR3 (UniProt P22607); experiment: as above
EPHB2 = EPHB2 (UniProt P29323); experiment: as above
Jak2 = Jak2 (UniProt O60674); experiment: as above
c-Src = experiment: as above
MERTK = MERTK (UniProt Q12866); experiment: as above
c-Abl (mouse) = experiment: as above
Fer (mouse) = experiment: as above
AncSZ = experiment: as above
Fes = Fes (UniProt P07332); experiment: as above
FGFR1 = FGFR1 (UniProt P11362); experiment: as above
EPHB1 = EPHB1 (UniProt P54762); experiment: as above
Fyn = Fyn (UniProt P06241); experiment: as above
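For SH2 binding enrichment of the phosphorylated peptide, bacterial display in this document: peptide library displayed on the E. coli surface as eCPX fusions, selected cells deep-sequenced, score is each peptide's frequency after selection divided by its frequency in the input.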
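For phosphorylation enrichment, bacterial display in this document: 11-residue human phosphosite peptides and single-mutation variants displayed on the E. coli surface, counted by deep sequencing, each peptide's frequency after selection divided by its frequency in the unselected input library; frequency after pTyr selection over input frequency; kinase dosed for 20-30% of maximal phosphorylation in three min.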

Sequence of EPHB2 (P29323 whole entry, looked up): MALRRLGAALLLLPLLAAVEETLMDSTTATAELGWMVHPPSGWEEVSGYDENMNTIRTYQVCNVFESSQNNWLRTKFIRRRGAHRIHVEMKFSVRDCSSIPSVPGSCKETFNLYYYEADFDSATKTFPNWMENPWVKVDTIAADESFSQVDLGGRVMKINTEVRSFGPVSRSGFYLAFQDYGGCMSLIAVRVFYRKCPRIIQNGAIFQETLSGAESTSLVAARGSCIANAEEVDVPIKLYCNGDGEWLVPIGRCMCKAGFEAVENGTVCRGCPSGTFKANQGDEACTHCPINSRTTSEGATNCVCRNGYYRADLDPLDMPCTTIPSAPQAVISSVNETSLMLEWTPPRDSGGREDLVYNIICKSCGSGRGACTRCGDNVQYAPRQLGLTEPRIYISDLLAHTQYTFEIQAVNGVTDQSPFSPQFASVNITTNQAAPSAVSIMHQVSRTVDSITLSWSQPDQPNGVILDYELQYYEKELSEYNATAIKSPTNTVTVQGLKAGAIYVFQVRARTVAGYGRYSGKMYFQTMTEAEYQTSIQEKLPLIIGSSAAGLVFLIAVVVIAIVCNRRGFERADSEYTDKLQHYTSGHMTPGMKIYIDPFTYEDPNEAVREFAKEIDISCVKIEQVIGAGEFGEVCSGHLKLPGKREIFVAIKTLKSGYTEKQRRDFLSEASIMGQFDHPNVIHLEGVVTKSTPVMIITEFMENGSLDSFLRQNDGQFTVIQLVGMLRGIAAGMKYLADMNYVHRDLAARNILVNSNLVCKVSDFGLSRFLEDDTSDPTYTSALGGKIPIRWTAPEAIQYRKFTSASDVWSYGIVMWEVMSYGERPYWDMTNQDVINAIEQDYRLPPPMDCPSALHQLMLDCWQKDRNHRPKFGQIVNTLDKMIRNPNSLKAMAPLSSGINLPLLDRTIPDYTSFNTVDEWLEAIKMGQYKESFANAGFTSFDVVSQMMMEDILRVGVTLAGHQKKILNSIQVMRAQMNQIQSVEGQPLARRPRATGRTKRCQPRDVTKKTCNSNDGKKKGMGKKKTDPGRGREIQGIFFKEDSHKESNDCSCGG
Sequence of Hck (P08631 whole entry, looked up): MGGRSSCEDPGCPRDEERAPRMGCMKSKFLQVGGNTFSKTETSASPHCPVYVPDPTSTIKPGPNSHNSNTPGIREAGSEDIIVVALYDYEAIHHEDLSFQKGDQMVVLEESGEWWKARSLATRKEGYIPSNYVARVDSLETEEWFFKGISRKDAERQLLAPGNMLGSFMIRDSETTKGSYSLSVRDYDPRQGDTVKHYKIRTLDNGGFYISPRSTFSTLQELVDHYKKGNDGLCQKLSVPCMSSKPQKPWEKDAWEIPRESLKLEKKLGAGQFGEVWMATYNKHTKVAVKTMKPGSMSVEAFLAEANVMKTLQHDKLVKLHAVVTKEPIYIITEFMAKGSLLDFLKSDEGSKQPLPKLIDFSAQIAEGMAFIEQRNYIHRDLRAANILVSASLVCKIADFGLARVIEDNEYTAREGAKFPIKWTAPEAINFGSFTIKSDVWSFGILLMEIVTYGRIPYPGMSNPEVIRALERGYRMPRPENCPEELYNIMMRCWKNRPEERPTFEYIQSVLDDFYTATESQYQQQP
Sequence of Jak2 (O60674 whole entry, looked up): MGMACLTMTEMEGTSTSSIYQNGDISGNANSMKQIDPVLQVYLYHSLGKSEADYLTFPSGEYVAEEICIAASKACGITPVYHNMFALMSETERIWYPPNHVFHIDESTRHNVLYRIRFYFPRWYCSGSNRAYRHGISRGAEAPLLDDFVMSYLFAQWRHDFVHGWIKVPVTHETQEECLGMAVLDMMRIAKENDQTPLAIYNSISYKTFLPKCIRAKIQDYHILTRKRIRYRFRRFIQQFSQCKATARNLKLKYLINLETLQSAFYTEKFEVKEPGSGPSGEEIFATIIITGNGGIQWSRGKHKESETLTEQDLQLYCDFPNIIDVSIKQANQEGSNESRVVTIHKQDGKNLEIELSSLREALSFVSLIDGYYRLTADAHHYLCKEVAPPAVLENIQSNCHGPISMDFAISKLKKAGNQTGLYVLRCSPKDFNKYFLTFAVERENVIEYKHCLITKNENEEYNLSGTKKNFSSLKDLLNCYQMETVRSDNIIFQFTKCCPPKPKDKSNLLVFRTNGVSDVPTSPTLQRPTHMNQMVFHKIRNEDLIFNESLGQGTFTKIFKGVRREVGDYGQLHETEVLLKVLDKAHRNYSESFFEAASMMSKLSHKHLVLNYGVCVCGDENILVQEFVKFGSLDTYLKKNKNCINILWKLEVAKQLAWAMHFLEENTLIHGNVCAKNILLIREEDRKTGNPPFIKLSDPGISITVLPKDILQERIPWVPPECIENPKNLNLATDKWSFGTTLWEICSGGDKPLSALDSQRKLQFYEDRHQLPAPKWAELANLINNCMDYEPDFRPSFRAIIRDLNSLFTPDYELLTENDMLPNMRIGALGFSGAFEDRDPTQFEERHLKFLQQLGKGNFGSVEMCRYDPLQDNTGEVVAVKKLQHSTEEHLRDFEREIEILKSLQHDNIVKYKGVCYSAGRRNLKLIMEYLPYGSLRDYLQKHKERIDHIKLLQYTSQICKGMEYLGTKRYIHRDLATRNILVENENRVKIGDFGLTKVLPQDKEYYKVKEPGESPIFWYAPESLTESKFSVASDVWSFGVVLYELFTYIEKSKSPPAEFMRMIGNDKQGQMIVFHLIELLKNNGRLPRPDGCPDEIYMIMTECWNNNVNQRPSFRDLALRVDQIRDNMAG
Sequence of Fyn (P06241 whole entry, looked up, the tested form may be a part): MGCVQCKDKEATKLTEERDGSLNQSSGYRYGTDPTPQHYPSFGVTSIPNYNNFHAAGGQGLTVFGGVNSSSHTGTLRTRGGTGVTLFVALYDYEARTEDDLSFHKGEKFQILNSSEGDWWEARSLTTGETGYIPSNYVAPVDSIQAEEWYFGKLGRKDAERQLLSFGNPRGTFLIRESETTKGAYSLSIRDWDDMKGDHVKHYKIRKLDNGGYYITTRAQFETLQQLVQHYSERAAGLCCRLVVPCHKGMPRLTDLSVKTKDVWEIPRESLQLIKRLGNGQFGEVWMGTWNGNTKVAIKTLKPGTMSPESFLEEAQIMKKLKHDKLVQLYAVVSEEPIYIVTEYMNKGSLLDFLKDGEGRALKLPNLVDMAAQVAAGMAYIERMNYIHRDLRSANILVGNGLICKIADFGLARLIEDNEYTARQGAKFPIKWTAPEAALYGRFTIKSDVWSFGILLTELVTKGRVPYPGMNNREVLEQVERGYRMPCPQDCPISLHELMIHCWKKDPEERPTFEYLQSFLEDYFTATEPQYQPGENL
Sequence of FGFR3 (P22607 whole entry, looked up): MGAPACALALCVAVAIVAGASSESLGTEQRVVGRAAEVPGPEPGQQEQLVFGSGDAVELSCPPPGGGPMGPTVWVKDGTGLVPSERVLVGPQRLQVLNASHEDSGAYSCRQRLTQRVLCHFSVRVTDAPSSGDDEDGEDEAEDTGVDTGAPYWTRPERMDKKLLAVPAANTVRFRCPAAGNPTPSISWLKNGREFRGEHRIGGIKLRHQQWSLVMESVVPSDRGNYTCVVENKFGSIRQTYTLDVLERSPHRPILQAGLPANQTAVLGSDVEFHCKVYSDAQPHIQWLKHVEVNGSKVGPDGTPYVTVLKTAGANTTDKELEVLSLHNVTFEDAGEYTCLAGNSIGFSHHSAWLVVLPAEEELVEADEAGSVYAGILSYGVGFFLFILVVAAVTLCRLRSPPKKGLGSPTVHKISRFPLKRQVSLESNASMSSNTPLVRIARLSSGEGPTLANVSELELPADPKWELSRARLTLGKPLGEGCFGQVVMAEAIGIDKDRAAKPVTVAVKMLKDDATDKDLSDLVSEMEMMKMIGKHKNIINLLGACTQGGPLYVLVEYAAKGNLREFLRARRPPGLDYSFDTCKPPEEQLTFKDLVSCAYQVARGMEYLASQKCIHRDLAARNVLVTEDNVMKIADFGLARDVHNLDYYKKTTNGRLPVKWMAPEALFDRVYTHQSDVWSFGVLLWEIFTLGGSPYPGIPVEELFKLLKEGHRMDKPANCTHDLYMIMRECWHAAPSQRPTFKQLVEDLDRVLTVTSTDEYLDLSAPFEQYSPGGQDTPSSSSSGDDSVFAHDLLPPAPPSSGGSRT
Sequence of FGFR1 (P11362 whole entry, looked up): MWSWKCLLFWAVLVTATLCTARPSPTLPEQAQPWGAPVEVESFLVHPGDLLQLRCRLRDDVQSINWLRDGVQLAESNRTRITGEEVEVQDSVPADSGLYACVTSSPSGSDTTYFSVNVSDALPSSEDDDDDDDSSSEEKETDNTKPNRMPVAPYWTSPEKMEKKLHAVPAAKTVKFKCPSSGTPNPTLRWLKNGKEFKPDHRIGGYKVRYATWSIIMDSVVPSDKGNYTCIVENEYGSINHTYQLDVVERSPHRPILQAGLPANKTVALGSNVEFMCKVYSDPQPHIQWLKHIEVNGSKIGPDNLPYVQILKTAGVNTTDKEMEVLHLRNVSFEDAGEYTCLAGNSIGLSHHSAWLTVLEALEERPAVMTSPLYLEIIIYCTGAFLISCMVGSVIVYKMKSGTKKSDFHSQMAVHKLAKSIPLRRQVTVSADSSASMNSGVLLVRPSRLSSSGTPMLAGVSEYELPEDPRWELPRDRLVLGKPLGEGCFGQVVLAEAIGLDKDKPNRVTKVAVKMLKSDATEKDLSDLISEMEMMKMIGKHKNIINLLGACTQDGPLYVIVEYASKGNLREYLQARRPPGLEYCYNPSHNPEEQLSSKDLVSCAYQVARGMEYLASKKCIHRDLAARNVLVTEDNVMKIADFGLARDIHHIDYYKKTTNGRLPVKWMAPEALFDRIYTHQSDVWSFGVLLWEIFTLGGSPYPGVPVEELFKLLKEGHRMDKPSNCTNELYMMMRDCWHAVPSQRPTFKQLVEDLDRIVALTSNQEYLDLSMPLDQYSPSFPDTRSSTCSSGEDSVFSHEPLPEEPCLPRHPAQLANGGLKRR

Sequence | SH2 binding enrichment (c-Src SH2) | SH2 binding enrichment (SHP2-C SH2) | SH2 binding enrichment (Grb2 SH2) | phosphorylation enrichment (Hck) | phosphorylation enrichment (FGFR3) | phosphorylation enrichment (EPHB2) | phosphorylation enrichment (Jak2) | phosphorylation enrichment (c-Src) | phosphorylation enrichment (MERTK) | phosphorylation enrichment (c-Abl (mouse)) | phosphorylation enrichment (Fer (mouse)) | phosphorylation enrichment (AncSZ) | phosphorylation enrichment (Fes) | phosphorylation enrichment (FGFR1) | phosphorylation enrichment (EPHB1) | phosphorylation enrichment (Fyn)
KKHIPYSEHKS [CSNK1G2_Y206_R207S] | 1.51 | 1.41 | 1.62 | 0.565 | 1.1 | 0.644 | 1.37 | 0.781 | 0.606 | 1.53 | 0.72 | 0.718 | 1.52 | 0.483 | 0.488 | 0.374
KKYPDYIQIAR [SGMS2_Y59_M64R] | 0.858 | 0.808 | 1.23 | 0.48 | 2.55 | 1.22 | 1.28 | 0.47 | 0.392 | 0.702 | 0.388 | 0.98 | 0.984 | 3.97 | 7.96 | 0.367
KLLLKYSFHDA [RNF213_Y4141_V4146A] | 0.81 | 1.02 | 1.16 | 0.418 | 0.672 | 0.615 | 0.993 | 0.385 | 0.39 | 0.616 | 0.476 | 1.05 | 1.3 | 0.484 | 0.616 | 0.367
KLQKFYRKNPD [EHHADH_Y683_Q685K_YF] | 0.638 | 0.702 | 0.86 | 0.402 | 0.329 | 0.32 | 0.469 | 0.48 | 0.449 | 0.549 | 0.302 | 0.447 | 0.541 | 0.401 | 0.348 | 0.389
KMKGDYFRSLA [YWHAG_Y130_Y133S_YF] | 0.753 | 0.825 | 0.917 | 0.484 | 0.602 | 0.361 | 0.633 | 0.456 | 0.437 | 0.521 | 0.436 | 0.676 | 0.675 | 0.456 | 0.457 | 0.399
KNAEKYAEEDW [HSPA9_Y568_R573W] | 0.541 | 0.541 | 0.735 | 0.52 | 0.776 | 0.727 | 1.21 | 0.51 | 0.533 | 0.895 | 0.487 | 1.32 | 1.56 | 0.763 | 0.667 | 0.533
KNKNRYKNVLP [PTPN11_Y279_I282V] | 0.803 | 0.886 | 0.734 | 0.412 | 0.716 | 0.398 | 0.767 | 0.449 | 0.473 | 0.881 | 0.414 | 0.551 | 0.593 | 0.419 | 0.426 | 0.372
KNNDGNIDYAE [MCFD2_Y135_Y135N] | 0.694 | 0.792 | 1.05 | 0.524 | 0.916 | 0.53 | 0.776 | 0.388 | 0.479 | 0.62 | 0.453 | 1.13 | 1.13 | 0.501 | 0.572 | 0.462
KRFAFYRDSPR [FOXE3_Y108_E103K] | 0.81 | 0.974 | 1.14 | 0.387 | 0.479 | 0.387 | 0.482 | 0.414 | 0.437 | 0.526 | 0.421 | 0.538 | 0.643 | 0.443 | 0.327 | 0.446
KRGIDYILRHM [FRMD1_Y225] | 1.68 | 1.99 | 1.95 | 0.396 | 0.592 | 0.463 | 0.654 | 0.387 | 0.396 | 0.567 | 0.415 | 0.792 | 0.872 | 0.457 | 0.494 | 0.414
KTKIGYSPLHQ [ANK1_Y735_L733I] | 0.398 | 0.827 | 0.903 | 0.435 | 0.384 | 0.449 | 0.49 | 0.425 | 0.466 | 0.456 | 0.434 | 0.489 | 0.512 | 0.422 | 0.326 | 0.408
KTVQDYLEKFY [MMP8_Y36] | 0.51 | 0.686 | 1.13 | 0.539 | 0.707 | 0.711 | 1.21 | 0.674 | 0.517 | 1.23 | 0.562 | 1.36 | 1.31 | 0.627 | 0.673 | 0.708
KVALVYGQMNQ [ATP5F1B_Y269_E274Q] | 0.434 | 0.636 | 0.703 | 1.78 | 0.634 | 0.641 | 0.841 | 3.17 | 0.425 | 0.829 | 0.506 | 0.726 | 1.27 | 0.424 | 0.496 | 2.16
KVNKIYYPDFI [LIG3_Y767] | 0.636 | 0.695 | 0.834 | 0.668 | 3.46 | 0.45 | 0.68 | 0.724 | 1.05 | 0.589 | 0.481 | 0.727 | 0.762 | 4.13 | 0.536 | 0.607
KVVVPYEPPEV [TP53_Y220_S215K] | 0.86 | 0.472 | 0.709 | 0.406 | 0.632 | 0.573 | 1 | 0.408 | 0.402 | 1.02 | 0.38 | 0.921 | 0.866 | 0.442 | 0.452 | 0.458
KWELRYMHSRV [ABCD1_Y281_G277W] | 0.716 | 0.878 | 1.06 | 0.474 | 0.685 | 0.528 | 1.07 | 0.37 | 0.369 | 0.759 | 0.457 | 1.09 | 1.31 | 0.393 | 0.517 | 0.458
LAAPKYKLNVD [SMARCA2_Y1190_A1188P] | 0.325 | 0.592 | 0.713 | 0.551 | 0.518 | 0.307 | 0.353 | 0.44 | 0.346 | 0.422 | 0.291 | 0.46 | 0.961 | 0.258 | 0.205 | 0.546

Sequence | SH2 binding enrichment (c-Src SH2) | SH2 binding enrichment (SHP2-C SH2) | SH2 binding enrichment (Grb2 SH2) | phosphorylation enrichment (Hck) | phosphorylation enrichment (FGFR3) | phosphorylation enrichment (EPHB2) | phosphorylation enrichment (Jak2) | phosphorylation enrichment (c-Src) | phosphorylation enrichment (MERTK) | phosphorylation enrichment (c-Abl (mouse)) | phosphorylation enrichment (Fer (mouse)) | phosphorylation enrichment (AncSZ) | phosphorylation enrichment (Fes) | phosphorylation enrichment (FGFR1) | phosphorylation enrichment (EPHB1) | phosphorylation enrichment (Fyn)
LAIERYVVVCK [RHO_Y136] | 0.476 | 0.679 | 0.674 | 0.862 | 1.21 | 1.09 | 1.9 | 0.859 | 0.732 | 1.51 | 1.32 | 1.83 | 2.33 | 0.766 | 0.938 | 0.597
LAVPLYKNGVK [CPS1_Y1069] | 0.512 | 0.708 | 1.12 | 0.574 | 0.836 | 1.67 | 0.933 | 0.416 | 1.42 | 0.777 | 1.04 | 1.23 | 0.856 | 0.904 | 1.09 | 0.777
LDCNEYFRDLN [HPRT1_Y198_Y195C] | 0.704 | 0.927 | 1.07 | 0.911 | 1.34 | 0.922 | 1.5 | 0.487 | 0.687 | 1.15 | 0.697 | 1.82 | 1.73 | 0.966 | 0.933 | 0.906
LDVGEYCVPRG [BEX1_Y43_A40V] | 0.503 | 0.698 | 0.755 | 0.853 | 1.23 | 2.47 | 1.32 | 0.539 | 0.568 | 3.73 | 0.842 | 5.36 | 1.21 | 0.982 | 2.26 | 1.09
LDYNEYFRNLN [HPRT1_Y198_D201N] | 0.507 | 0.967 | 0.81 | 0.69 | 0.844 | 0.751 | 1.79 | 0.657 | 0.382 | 0.849 | 0.48 | 2.08 | 1.14 | 0.596 | 0.559 | 0.49
LEGAKYVSHGA [ASS1_Y113_R108L] | 0.446 | 0.516 | 1.18 | 0.606 | 1.17 | 1.03 | 0.696 | 0.605 | 0.551 | 0.852 | 0.928 | 0.835 | 1.14 | 1 | 0.682 | 0.973
LEHCQYVTQKV [ALDOB_Y204_E207Q] | 0.731 | 1.18 | 0.957 | 0.507 | 0.763 | 0.924 | 1.03 | 0.617 | 0.401 | 0.727 | 0.648 | 1.01 | 1.04 | 0.656 | 0.818 | 0.47
LERFIYNPEEF [HLA-DPB1_Y59_R61P_YF] | 0.399 | 0.866 | 0.791 | 1.33 | 1.71 | 0.708 | 1.32 | 2.4 | 0.618 | 1.09 | 0.927 | 2.02 | 1.75 | 0.934 | 0.738 | 1.75
LFHENYNAGTY [CFI_Y421_I416L] | 0.704 | 0.818 | 0.9 | 0.527 | 0.633 | 0.626 | 0.976 | 1.3 | 0.537 | 1.22 | 0.822 | 1.06 | 1.1 | 0.78 | 0.521 | 0.605
LFLALYTGLVH [PIGB_Y402] | 1.51 | 0.7 | 1.43 | 2.29 | 1.39 | 1.4 | 1.53 | 2.11 | 1.2 | 1.38 | 1.46 | 2.04 | 2.02 | 0.775 | 1.26 | 1.42
LGPSDYFGETA [PRKAR1A_Y323_I327T] | 0.59 | 0.499 | 0.817 | 0.509 | 0.636 | 0.425 | 0.749 | 0.55 | 0.398 | 0.448 | 0.422 | 0.964 | 0.808 | 0.585 | 0.597 | 0.518
LGSVVYAQSKE [KCNQ2_Y226_H228Q] | 0.528 | 1.6 | 0.974 | 1.29 | 1.39 | 0.97 | 1.19 | 1.08 | 1.1 | 1.24 | 0.99 | 1.61 | 1.31 | 0.852 | 1.86 | 1.08
LKGQVYILGWE [ASS1_Y359_R363W] | 0.684 | 0.827 | 1.01 | 0.508 | 0.81 | 0.57 | 1.14 | 0.575 | 0.428 | 0.804 | 0.642 | 1.14 | 1.4 | 0.544 | 0.655 | 0.575
LLANAYIYDVQ [L1CAM_Y418_V421D] | 0.818 | 1.13 | 0.803 | 4.13 | 0.616 | 1.56 | 1.22 | 3.69 | 2.71 | 0.538 | 0.802 | 1.17 | 1.27 | 0.391 | 1.46 | 6.7
LLKAGYQGVLR [TTPA_Y100_H101Q] | 1.23 | 1.3 | 1.38 | 0.713 | 0.565 | 0.366 | 0.55 | 0.311 | 0.459 | 0.442 | 0.425 | 0.502 | 0.73 | 0.67 | 0.648 | 0.265
LLKANYELLNA [POLR3A_Y714_K713N] | 1.51 | 0.973 | 0.834 | 0.459 | 0.78 | 0.804 | 0.857 | 0.814 | 0.976 | 0.949 | 0.551 | 0.975 | 0.865 | 0.457 | 1.28 | 0.431
